Source: patent US12534531 (MacroGenics, dated 2026)
Substitutions are numbered along the chain they refer to.

B1: PD-1 mAb 8 (antibody, V domains shown)
VH: EGQLQQSGPELVKPGASVKISCKASGYTFTDYYMNWVKQNHGKSLEWIGDINPKNGDTHYNQKFKGEATLTVDKSSTTAYMELRSLTSEDSAVYYCASDFDYWGQGTTLTVSS
VL: DVVMTQTPLSLPVGLGDQASISCRSSQTLVYSNGNTYLNWFLQKPGQSPKLLIYKVSNRFSGVPDRFSGSGSGTDFTLKISRVEAEDLGVYFCSQSTHVPFTFGSGTKLEIK
notes: Murine monoclonal antibody
B2: PD-1 mAb 11 (antibody, V domains shown)
VH: EVQLQQSGTVLARPGASVKMSCKTSGYTFTGYWMHWVKQRPGQGLKWMGAIYPGNSDTHYNQKFKGKAKLTAVTSASTAYMELSSLTNEDSAIYYCTTGTYSYFDVWGTGTTVTVSS
VL: DILLTQSPAILSVSPGERVSFSCRASQSIGTSIHWYQHRTNGSPRLLIKYASESISGIPSRFSGSGSGTDFTLSINSVESEDIADYYCQQSNSWLTFGAGTKLELK
notes: Murine monoclonal antibody
B3: PD-1 mAb 10 (antibody, V domains shown)
VH: EVILVESGGGLVKPGGSLKLSCAASGFTFSNYLMSWVRQTPEKRLEWVASISGGGSNIYYPDSVKGRFTISRDNAKNTLYLQMNSLRSEDTALYYCARQELAFDYWGQGTTLTVSS
VL: DIQMTQTTSSLSASLGDRVTISCRTSQDISNFLNWYQQKPDGTIKLLIYYTSRLHSGVPSRFSGSGSGTDYSLTISNLEQEDIATYFCQQGSTLPWTFGGGTKLEII
notes: Murine monoclonal antibody
B4: PD-1 mAb 12 (antibody, V domains shown)
VH: QGHLQQSGAELVRPGASVTLSCKASGFTFTDYEMHWVKQTPVHGLEWIGTIDPETGGTAYNQKFKGKAILTVDKSSTTTYMELRSLTSEDSAVFYCSRERITTVVEGAYWYFDVWGTGTTVTVSS
VL: DVLMTQTPLSLPVSLGDQASISCRSSQNIVHSNGNTYLEWYLQKPGQSPKLLICKVSTRFSGVPDRFSGSGSGTDFTLKISRVEAEDLGVYYCFQGSHVPYTFGGGTKLEIK
notes: Murine monoclonal antibody
B5: PD-1 mAb 13 (antibody, V domains shown)
VH: EVMLVESGGGLVKPGGSLKLSCAASGFTFSSHTMSWVRQTPEKRLEWVATISGGGSNIYYPDSVKGRFTISRDNAKNTLYLQMSSLRSEDTALYYCARQAYYGNYWYFDVWGTGTTVTVSS
VL: DIQMTQSPATQSASLGESVTITCLASQTIGTWLAWYQQKPGKSPQLLIYAATSLADGVPSRFSGSGSGTKFSFKISSLQAEDFVSYYCQQLDSIPWTFGGGTKLEIK
notes: Murine monoclonal antibody
B6: PD-1 mAb 14 (antibody, V domains shown)
VH: QVQLQQPGAELVKPGASVKMSCKASGYNFISYWITWVKQRPGQGLQWIGNIYPGTDGTTYNEKFKSKATLTVDTSSSTAYMHLSRLTSEDSAVYYCATGLHWYFDVWGTGTTVTVSS
VL: DIVMTQSQKFMSTSVGDRVSVTCKASQSVGTNVAWYQQKPGQSPKALIYSASSRFSGVPDRFTGSGSGTDFTLTISNVQSEDLAEYFCQQYNSYPYTFGGGTKLEIK
notes: Murine monoclonal antibody
B7: hPD-1 mAb 15 IgG1 (AA) (antibody, V domains shown)
VH: EVQLVESGGGLVRPGGSLRLSCAASGFTFSSYLISWVRQAPGKGLEWVAAISGGGADTYYADSVKGRFTISRDNAKNSLYLQMNSLRAEDTATYYCARRGTYAMDYWGQGTLVTVSS
VL: DIQMTQSPSSLSASVGDRVTITCLASQTIGTWLAWYQQKPGKAPKLLIYAATSLADGVPSRFSGSGSGTDFTFTISSLQPEDFATYYCQQLYSIPWTFGQGTKLEIKR
B8: PD-1 mAb 15 (antibody, V domains shown)
VH: EVMLVESGGGLVKPGGSLKLSCAASGFIFSSYLISWVRQTPEKRLEWVAAISGGGADTYYADSVKGRFTISRDNAKNTLYLQMSSLRSEDTALYYCTRRGTYAMDYWGQGTSVTVSS
VL: B5 VL with T10S, S85N, D92Y
notes: Murine monoclonal antibody
B9: hPD-1 mAb 7 (1.2), constant region not named where tested (antibody, V domains shown)
VH: QVQLVQSGAEVKKPGASVKVSCKASGYSFTSYWMNWVRQAPGQGLEWIGVIHPSDSETWLDQKFKDRVTITVDKSTSTAYMELSSLRSEDTAVYYCAREHYGTSPFAYWGQGTLVTVSS
VL: EIVLTQSPATLSLSPGERATLSCRASESVDNYGMSFMNWFQQKPGQPPKLLIHAASNQGSGVPSRFSGSGSGTDFTLTISSLEPEDFAVYFCQQSKEVPYTFGGGTKVEIK
B10: hPD-1 mAb 9 (1.1), constant region not named where tested (antibody, V domains shown)
VH: EVQLVESGGGLVRPGGSLKLSCAASGFTFSSYLVSWVRQAPGKGLEWVATISGGGGNTYYSDSVKGRFTISRDNAKNSLYLQMNSLRAEDTATYYCARYGFDGAWFAYWGQGTLVTVSS
VL: DIQMTQSPSSLSASVGDRVTITCRASENIYSYLAWYQQKPGKAPKLLIYNAKTLAAGVPSRFSGSGSGTDFTLTISSLQPEDFATYYCQHHYAVPWTFGQGTKLEIK
B11: hPD-1 mAb 15, constant region not named where tested (antibody, V domains shown)
VH: B7 VH
VL: DIQMTQSPSSLSASVGDRVTITCLASQTIGTWLAWYQQKPGKAPKLLIYAATSLADGVPSRFSGSGSGTDFTFTISSLQPEDFATYYCQQLYSIPWTFGQGTKLEIK
notes: also called humanized PD-1 mAb 15
B12: hPD-1 mAb 2, constant region not named where tested (antibody, V domains shown)
VH: EVQLVESGGGLVQPGGSLRLSCAASGFVFSSFGMHWVRQAPGKGLEWVAYISSGSMSISYADTVKGRFTISRDNAKNTLYLQMNSLRTEDTALYYCASLSDYFDYWGQGTTVTVSS
VL: DVVMTQSPLSLPVTLGQPASISCRSSQSLVHSTGNTYLHWYLQKPGQSPQLLIYRVSNRFSGVPDRFSGSGSGTDFTLKISRVEAEDVGVYYCSQTTHVPWTFGQGTKLEIK
notes: also called humanized PD-1 mAb 2
B13: PD-1 mAb A (nivolumab), constant region not named where tested (antibody, V domains shown)
VH: QVQLVESGGGVVQPGRSLRLDCKASGITFSNSGMHWVRQAPGKGLEWVAVIWYDGSKRYYADSVKGRFTISRDNSKNTLFLQMNSLRAEDTAVYYCATNDDYWGQGTLVTVSS
VL: EIVLTQSPATLSLSPGERATLSCRASQSVSSYLAWYQQKPGQAPRLLIYDASNRATGIPARFSGSGSGTDFTLTISSLEPEDFAVYYCQQSSNWPRTFGQGTKVEIK
notes: also called 5C4; BMS-936558
B14: PD-1 mAb A IgG1 (AA) (antibody, V domains shown)
VH: B13 VH
VL: B13 VL

Target: T1, soluble human PD-1 (the extracellular domain of human PD-1 fused to a His tag) (human, UniProt Q15116 25-170)
T1 construct: also called shPD-1 His; shPD-1-His; not shown: His tag
Experiment: ELISA: shPD-1 His coated at 0.5 ug/ml, goat anti-mouse IgG (H+L) detection, RLU

T1 sequence (Q15116 25-170): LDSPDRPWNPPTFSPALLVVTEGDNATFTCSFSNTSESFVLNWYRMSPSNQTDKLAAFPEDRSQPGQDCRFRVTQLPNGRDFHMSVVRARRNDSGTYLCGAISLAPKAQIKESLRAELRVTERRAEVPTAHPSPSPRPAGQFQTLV

Row | Binder | binding result | EC50 (read off the curve) [µg/mL]
1 | B1 | binds | 
2 | B2 |  | ~0.2
3 | B3 | binds | 
4 | B4 | binds | 
5 | B5 | binds | 
6 | B6 | binds | 

Target: T2, human PD-1 expressed on the surface of cells (NSO cells expressing human PD-1; MNFAT-luc2/PD-1 Jurkat cells) (human, UniProt Q15116 21-288)
T2 construct: also called cell surface PD-1; PDCD1 transfected NSO cells expressing PD-1
Experiment: FACS blocking on NSO cells expressing human PD-1, 1:4 dilutions, MFI; blocked ligand: biotinylated sPD-L1, streptavidin-PE

T2 sequence (Q15116 21-288): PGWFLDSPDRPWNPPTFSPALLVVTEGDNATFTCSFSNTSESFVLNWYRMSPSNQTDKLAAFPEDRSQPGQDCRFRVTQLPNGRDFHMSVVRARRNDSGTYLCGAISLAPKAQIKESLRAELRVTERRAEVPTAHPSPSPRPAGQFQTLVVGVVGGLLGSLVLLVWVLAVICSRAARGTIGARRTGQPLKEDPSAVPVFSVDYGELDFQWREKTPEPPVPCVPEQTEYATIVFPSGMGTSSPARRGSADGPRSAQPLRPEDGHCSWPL

Row | Binder | IC50 (read off the curve) [ug/test]
7 | B7 | ~0.04

Target: T1, soluble human PD-1 (the extracellular …)
Experiment: Biacore, mAb captured on Protein A, analyte shPD-1 His

Row | Binder | Kd [nM]
8 | B8 | 2.9
9 | B9 | 0.39
10 | B10 | 36.1
11 | B11 | 13.3
12 | B12 | 5

Target: T3, soluble cynomolgus monkey PD-1 (scyno PD-1 hFc) cleaved to remove Fc portion (cynomolgus monkey, UniProt B0LAJ3 25-170)
Experiment: Biacore, mAb captured on Protein A, analyte scyno PD-1 hFc cleaved of Fc

T3 sequence (B0LAJ3 entry or part of it limits assumed): as the sequence (Q15116 25-170) above, with D2E, P10A, V19L, T35A, Q75R, T144A counted along it

Row | Binder | Kd [nM]
13 | B8 | 40.7
14 | B9 | 1.7
15 | B10 | 73.3
16 | B11 | 78.3
17 | B12 | 17
18 | B13 | 6.9

Target: T3, soluble cynomolgus monkey PD-1 (scyno …)
Experiment: Biacore, mAb captured on F(ab)2 goat anti-human Fc, analyte scyno PD-1 hFc cleaved of Fc

Row | Binder | Kd [nM]
19 | B14 | 5.6

Target: T4, soluble cynomolgus monkey PD-1 (the extracellular domain of cynomolgus monkey PD-1 fused to a human Fc Region) (cynomolgus monkey, UniProt B0LAJ3 25-170)
T4 construct: also called scyno-PD1 Fc; scynoPD-1-hFc; not shown: Human Fc Region and any linker or cleavage site between the extracellular domain and the Fc
Experiment: ELISA: scyno-PD-1-TEV-Fc coated at 1 ug/ml, goat anti-mouse IgG (H+L) detection, RLU

T4 sequence (B0LAJ3 entry or part of it limits assumed): as the sequence (Q15116 25-170) above, with D2E, P10A, V19L, T35A, Q75R, T144A counted along it

Row | Binder | binding result | EC50 (read off the curve) [µg/mL]
20 | B1 | binds | 
21 | B2 |  | ~0.2
22 | B3 | binds | 
23 | B4 | binds | 
24 | B5 | binds | 
25 | B6 | binds | 
26 | B8 | binds | 

Target: T5, soluble human PD-1 (the extracellular domain of human PD-1 fused to a human Fc Region) (human, UniProt Q15116 25-170)
T5 construct: whole entry named; also called shPD-1 hFc; shPD-1-human Fc; not shown: human Fc Region
Experiment: ELISA: shPD-1 hFc coated at 0.5 ug/ml, goat anti-mouse IgG (H+L) detection, RLU

T5 sequence (Q15116 25-170): as the sequence (Q15116 25-170) above

Row | Binder | binding result
27 | B1 | binds
28 | B2 | binds
29 | B3 | binds
30 | B4 | binds
31 | B5 | binds
32 | B6 | binds
33 | B8 | binds

Target: T2, human PD-1 expressed on the surface of …
Experiment: FACS blocking on NSO cells expressing human PD-1, 1:4 dilutions, MFI; blocked ligand: biotinylated sPD-L2, streptavidin-PE

Row | Binder | IC50 (read off the curve) [ug/test]
34 | B7 | ~0.09
